Data published in publication PMC5228590 (Journal of bone and mineral research : the official journal …, 2016).

Biological target: vimentin (mouse (endogenous in MC-3T3 and in …, UniProt P20152 1-466))
Assay: co-IP

vimentin (mouse, sequence (P20152 whole entry): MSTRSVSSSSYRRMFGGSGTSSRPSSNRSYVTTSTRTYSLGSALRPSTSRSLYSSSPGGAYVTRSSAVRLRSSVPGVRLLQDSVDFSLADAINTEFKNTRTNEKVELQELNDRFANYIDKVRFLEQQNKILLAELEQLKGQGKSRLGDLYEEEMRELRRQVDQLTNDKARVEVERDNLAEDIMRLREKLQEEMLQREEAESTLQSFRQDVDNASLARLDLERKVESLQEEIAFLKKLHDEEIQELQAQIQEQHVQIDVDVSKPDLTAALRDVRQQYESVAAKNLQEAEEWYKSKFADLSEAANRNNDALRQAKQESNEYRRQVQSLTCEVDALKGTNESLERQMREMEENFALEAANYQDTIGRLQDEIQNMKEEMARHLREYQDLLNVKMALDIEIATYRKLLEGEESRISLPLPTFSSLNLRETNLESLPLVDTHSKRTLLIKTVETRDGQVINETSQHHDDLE

B1: activated PKCζ (phosphorylated on threonine 410) (enzyme, mouse (endogenous in MC-3T3), UniProt Q02956 1-592, looked up)
chain: MPSRTDPKMDRSGGRVRLKAHYGGDILITSVDAMTTFKDLCEEVRDMCGLHQQHPLTLKWVDSEGDPCTVSSQMELEEAFRLVCQGRDEVLIIHVFPSIPEQPGMPCPGEDKSIYRRGARRWRKLYRANGHLFQAKRFNRGAYCGQCSERIWGLSRQGYRCINCKLLVHKRCHVLVPLTCRRHMDSVMPSQEPPVDDKNDGVDLPSEETDGIAYISSSRKHDNIKDDSEDLKPVIDGVDGIKISQGLGLQDFDLIRVIGRGSYAKVLLVRLKKNDQIYAMKVVKKELVHDDEDIDWVQTEKHVFEQASSNPFLVGLHSCFQTTSRLFLVIEYVNGGDLMFHMQRQRKLPEEHARFYAAEICIALNFLHERGIIYRDLKLDNVLLDADGHIKLTDYGMCKEGLGPGDTTSTFCGTPNYIAPEILRGEEYGFSVDWWALGVLMFEMMAGRSPFDIITDNPDMNTEDYLFQVILEKPIRIPRFLSVKASHVLKGFLNKDPKERLGCRPQTGFSDIKSHAFFRSIDWDLLEKKQTLPPFQPQITDDYGLDNFDTQFTSEPVQLTPDDEDVIKRIDQSEFEGFEYINPLLLSAEESV
modifications: phosphothreonine at 410
How did the “fold increase of the association with IGF-I” value turn out when B1 was run?
Its value is 3.5 fold.
